# Assay results reported in publication PMC9143278.
# Biological target: human and murine IL-1R1 on HEK-Blue IL-1R cells (human and murine)
Molecule,SEAP reporter (620 nm) in HEK-Blue IL-1R cells after overnight incubation; EC50 of a 3-fold dilution series from 100 ng/mL,"SEAP reporter (620 nm) in HEK-Blue IL-1R cells after overnight incubation; EC50, positive control"
IL-1β(H30G)-Tag (ligand),2.4,–
IL-1β(R11G)-Tag (ligand),2.7,–
"IL-1β-Tag (His-TEV-muIL-1β-Tag, wild type) (from UniProt P10749 118-269) (ligand)",0.75,–
huIL-1β (commercial recombinant human IL-1β) (from UniProt P01584 117-269) (ligand),–,0.25

# Results, then the molecule that gave them:
SEAP reporter (620 nm) in HEK-Blue IL-1R cells after overnight incubation; EC50 of a 3-fold dilution series from 100 ng/mL,"SEAP reporter (620 nm) in HEK-Blue IL-1R cells after overnight incubation; EC50, positive control",Molecule
0.89,–,IL-1β(N32G)-Tag (ligand)
5.8,–,IL-1β(Q15G)-Tag (ligand)
–,0.21,muIL-1β (commercial recombinant murine IL-1β) (ligand) VPIRQLHYRLRDEQQKSLVLSDPYELKALHLNGQNINQQVIFSMSFVQGEPSNDKIPVALGLKGKNLYLSCVMKDGTPTLQLESVDPKQYPKKKMEKRFVFNKIEVKSKVEFESAEFPNWYISTSQAEHKPVFLGNNSGQDIIDFTMESVSS
